Among the data in publication PMC4882459 are Kd and koff values, retold here.

The target of this test is ES-62 (Acanthocheilonema viteae). Kind of test: SPR; Biacore 3000; 300 RU of ES-62 amine-coupled to a CM5 chip; CRP 10 ug/ml to 20 ng/ml flowed at 10 ul/min; HBS with 1 mM CaCl2 and 0.005% P20, pH 7.4; Langmuir 1:1 analysis, ka and kd calculated separately; avidity.

B1: C-reactive protein (native, human) (natural protein)
chain: QTDMSRKAFVFPKESDTSYVSLKAPLTKPLKAFTVCLHFYTELSSTRGYSIFSYATKRQDNEILIFWSKDIGYSFTVGGSEILFEVPEVTVAPVHICTSWESASGIVEFWVDGKPRVRKSLKKGYTVGAEASIILGQEQDSFGGNFEGSQSLVGDIGNVNMWDFVLSPDEINTIYLGGPFSPNVLNWRALKYEVQGEVFTKPQLWP
Regarding B1, the Kd was 100 pM and the koff is 0.0006 to 0.0014 s⁻¹.
